Assays:
[1] = target: T1, Fusion protein of LAG-3 extracellular region and hIgG1 Fc (human); assay: ELISA, LAG-3-Fc captured by anti-human Fc on plate (which fusion: inferred)
T1 construct: Limits of the signal peptide are marked only by lost underlining; also called LAG-3-Fc; LAG-3-Fc fusion protein
Description: The binding ability of anti-LAG-3 antibody to human LAG-3 protein was detected by ELISA assay. LAG-3 fusion protein with Fc or mFc tag was immobilized into 96-well microtiter plate by binding to anti-Fc or anti-mFc antibody coated on the microtiter plate, the strength of the signal after the addition of the antibody was used to determine the binding activity of the antibody to LAG-3, the specific experimental method is as follows.
The goat anti-human Fc antibody (Jackson Immuno Research, Cat No. 109-005-008) or goat anti-mouse Fc antibody (Sigma, Cat No. M3534-1ML) was diluted to a concentration of 2 μg/ml with PBS buffer at pH 7.4 (Sigma, Cat No. P4417-100TAB), and added to a 96-well plate at a volume of 50 μl/well and then, the plate was incubated in the incubator at 37° C. for 2 hours. After discarding the liquid, the plates were blocked with 200 μl/well of blocking solution containing 5% skim milk (Bright Dairy, skim milk powder) in PBS, and incubated in the incubator at 37° C. for 2.5 hours or overnight at 4° C. (16-18 hours). After blocking, the blocking solution was discarded and the plate was washed 5 times with PBST buffer (PH7.4 PBS containing 0.05% tween-20). […]

[2] = target: T2, LAG-3 extracellular domain with a Flag tag (human, UniProt P18627 23-434); assay: SPR (Biacore), antibody captured on anti-mouse capture chip, LAG-3-Flag in flow
T2 construct: also called LAG-3-Flag; LAG-3-Flag antigen
T2 sequence: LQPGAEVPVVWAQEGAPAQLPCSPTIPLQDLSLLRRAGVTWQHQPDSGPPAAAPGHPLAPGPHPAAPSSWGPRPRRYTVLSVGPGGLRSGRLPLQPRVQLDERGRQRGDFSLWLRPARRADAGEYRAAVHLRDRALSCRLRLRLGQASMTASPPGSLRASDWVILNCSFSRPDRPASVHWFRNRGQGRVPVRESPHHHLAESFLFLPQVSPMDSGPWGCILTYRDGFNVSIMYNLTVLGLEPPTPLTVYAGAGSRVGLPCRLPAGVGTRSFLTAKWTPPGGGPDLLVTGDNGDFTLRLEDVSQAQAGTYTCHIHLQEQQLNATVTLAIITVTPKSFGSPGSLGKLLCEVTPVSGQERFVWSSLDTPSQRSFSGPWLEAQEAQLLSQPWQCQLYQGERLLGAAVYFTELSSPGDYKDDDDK
Description: (§1) 1. […] Then, the LAG-3-Flag antigen (produced in-house, SEQ ID NO:1) was flowed through the surface of the biochip, and the reaction signal was detected in real time by using a Biacore instrument to obtain the binding and dissociation curves, the value of affinity was obtained by fitting, see above table 2. After each cycle of dissociation was finished in the experiment, the biochip was washed and regenerated with a regeneration solution provided in the mouse anti-capture kit.

[3] = target: T2, LAG-3 extracellular domain with a Flag …; assay: SPR (Biacore), antibody captured on anti-human capture chip, LAG-3-Flag in flow
Description: as §1, with “2.” for “1.”, “detected” for “detected in”, “time” for “time by”, “see” for “see above”, “10 below.” for “2.”, “human” for “mouse”

B1: mAb229 (antibody, V domains shown)
VH: QIQLVQSGPELKKPGETVKISCKASGYTFTTSGMSWVKQAPGKGLKWMGWINTYSGVPTYADDFKGRFAFSLETSASTAYLQINNLKNEDTATYFCARDNYDARDVYYYAMDYWGQGTSVTVSS
VL: DIQMTQSPASLSVSVGETVTITCRASENIYSNLAWYQQKQGKSPQLLVYAATNLADGVPSRFSGSGSGTQYSLKINSLQSEDFGSYYCQHFWITPWTFGGGTKLEIK
notes: Murine hybridoma antibody; also called LAG-3 antibody mAb229; hybridoma clone mAb229
Q: What does the source list for B1?
A: EC50 [1]: 0.129 nM; Kd [2]: 0.426 nM; Kd [3]: 0.0172 nM

B2: mAb303 (antibody, V domains shown)
VH: EVQLQQSGPVLVKPGASVKMSCKASGYTLTDYYMNWVKQSHGKSLEWIGVINPYNGDTAYNQKFKGKATLTVDKSSNTAYMEINSLTSEDSAVYYCTRDDGYYDYYFDVWGTGTTVTVSS
VL: DIQMTQSPSSLSASLGERVILTCRASQDIGSRLNWLQQGPDGTFKRLIYATSTLDSGVPKRFSGSRSGSDFSLTISSLESEDFVDYYCLQLASSPPTFGGGTKLEIK
notes: Murine hybridoma antibody; also called LAG-3 antibody mAb303; hybridoma clone mAb303
Q: Which results are given for B2?
A: EC50 [1]: 0.172 nM; Kd [2]: 0.47 nM; Kd [3]: 0.0749 nM

From patent US20220031842A1 (JIANGSU HENGRUI MEDICINE, published 2022)
